Substitutions are numbered along the chain they refer to.
Columns and labels:
[1] = molecular target: T1, Claudin 6 (human) (human, UniProt P56747 1-220); test: biosensor (Forte Octet), intact claudin in virus-like particles (lipoparticles)
T1 construct: Expressed on transfected HEK-293T cells or naturally on PA-1 cells for flow cytometry; For the Octet KD values it was the intact protein embedded in virus-like particles (lipoparticles); also called hsCLDN6; CLDN6
T1 chain: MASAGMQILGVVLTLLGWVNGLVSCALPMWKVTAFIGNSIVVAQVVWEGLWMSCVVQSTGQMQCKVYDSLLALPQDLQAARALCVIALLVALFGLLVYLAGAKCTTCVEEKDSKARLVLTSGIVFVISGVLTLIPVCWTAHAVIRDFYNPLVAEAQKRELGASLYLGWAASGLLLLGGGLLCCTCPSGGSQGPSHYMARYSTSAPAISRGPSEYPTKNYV
Protocol: Affinity of various antibodies against CLDN6 as compared to CLDN9, CLDN3, and CLDN4 was measured using a biosensor. Biosensor affinity measurement of the various antibodies against the proteins was determined using a Forte Octet, which was used for biosensor measurements, using intact claudin proteins embedded in virus-like particles (lipoparticles). The KD for different antibodies is shown below.

[2] = molecular target: T2, P74A; test: Shotgun Mutagenesis epitope mapping; mean (range), % of wild-type Claudin 6
T2 construct: Shotgun Mutagenesis mutant; also called Claudin 6 P74A
T2 chain: T1 chain with P74A

[3] = molecular target: T3, D76A; test: as above
T3 construct: Shotgun Mutagenesis mutant; also called Claudin 6 D76A
T3 chain: T1 chain with D76A

[4] = molecular target: T4, E154A; test: as above
T4 construct: Shotgun Mutagenesis mutant; also called Claudin 6 E154A
T4 chain: T1 chain with E154A

[5] = molecular target: T5, Q156L; test: as above
T5 construct: Shotgun Mutagenesis mutant; also called Claudin 6 Q156L
T5 chain: T1 chain with Q156L

[6] = molecular target: T6, V45A; test: as above
T6 construct: Shotgun Mutagenesis mutant; also called Claudin 6 V45A
T6 chain: T1 chain with V45A

[7] = molecular target: T7, Claudin 3 (UniProt O15551 1-220); test: flow cytometry, HEK-293T cells transiently transfected with the indicated claudin; pUC19 = empty vector control
T7 construct: also called CLDN3
T7 sequence (looked up): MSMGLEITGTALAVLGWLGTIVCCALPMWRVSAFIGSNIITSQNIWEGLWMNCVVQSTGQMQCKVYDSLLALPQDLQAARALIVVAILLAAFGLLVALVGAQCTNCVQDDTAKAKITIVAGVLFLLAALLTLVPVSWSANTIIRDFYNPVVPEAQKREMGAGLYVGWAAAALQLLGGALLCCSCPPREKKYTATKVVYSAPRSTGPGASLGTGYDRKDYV
Protocol: FIG. 2 illustrates the results of a binding assay showing that Claudin 6 MAbs bind to human Claudin 6 preferentially over other Claudin proteins. Human embryonic kidney 293T (HEK-293T) cells were transiently transfected with DNA for the indicated Claudin protein or empty vector along with GFP (pUC) for 22 hours.

[8] = molecular target: T1, Claudin 6 (human); test: flow cytometry, HEK-293T cells transiently transfected with human Claudin 6 (hsCLDN6); pUC = empty vector control
Protocol: FIG. 1 illustrates the results of a binding assay showing that Claudin 6 MAbs bind to human Claudin 6. Human embryonic kidney 293T (HEK-293T) cells were transiently transfected with DNA for human Claudin 6 (hsCLDN6) or empty vector along with GFP (pUC) for 22 hours. Claudin 6 MAbs (IM136, IM171, IM172, and IM173) were added at serial dilutions (0.0-10 μg/mL) and incubated for 90 min with shaking. After a wash step, secondary antibody for detection (allophycocyanin-conjugated mouse anti-human IgG Fc; Southern Biotech) was added and incubated for 30-45 min. Cells were washed, and fluorescence was detected by high-throughput Intellicyt flow cytometry, with gating by graphing forward scatter against side scatter. Data were analyzed in GraphPad Prism software based on the geometric mean of fluorescence intensity for the cell population in each well.

B1: IM171 (antibody, V domains shown)
VH: AVTLDESGGGLQTPGGALSLVCKASGFDFSSYAMNWVRQAPGKGLEWVAGIGSTGSSTGYGPAVKGRATISRDNGQSTLRLQLNNLRAEDTAIYYCAKSVGNGNSWSGYIATSIDAWGHGTEVIVSS
VL: ALTQPSSVSANLGGTVKLTCSGGSSGYGWYQQKSPGSAPVTVIYSNDKRPSDIPSRFSGSLSGSTGTLTITGVQADDEAVYFCGSTDNSYVGIFGAGTTLTVL
notes: Detected with anti-human IgG Fc secondary; also called LM171
Kd [1]: 3 nM | Binding Reactivity (% WT) [2]: 37.5 % WT | Binding Reactivity (% WT) [3]: 6 % WT | Binding Reactivity (% WT) [4]: 4 % WT | Binding Reactivity (% WT) [5]: 10 % WT | Binding Reactivity (% WT) [6]: 88.4 % WT | binding result [7]: no binding (tested: log [mAb] about -7.2 M) | EC50 (read off the curve) [8]: ~0.4 µg/mL

B2: IM173 (antibody, V domains shown)
VH: AVTLDESGGGLQTPGGALSLVCKASGFTFSSYSMFWVRRAPGKGLEWVAGIDSGSTTFYGSAVKGRATISRDNGQSTVRLQLNNLRAEDTATYYCAKDAYGYCGWSGCSADSIDAWGHGTEVIVSS
VL: ALTQPSSVSANPGGTVEITCSGGNNYYGWYQQKSPGSAPVTVIYYNDKRPSDIPSRFSGSKSGSTGTLTITGVQADDEAVYFCGGWDSSGGIFGAGTTLTVL
notes: Detected with anti-human IgG Fc secondary
Kd [1]: 0.32 nM | Binding Reactivity (% WT) [2]: 147 % WT | Binding Reactivity (% WT) [3]: 76.8 % WT | Binding Reactivity (% WT) [4]: 134 % WT | Binding Reactivity (% WT) [5]: 10.7 % WT | Binding Reactivity (% WT) [6]: 76.1 % WT | binding result [7]: no binding (tested: log [mAb] about -7.2 M) | EC50 (read off the curve) [8]: ~0.4 µg/mL
